Assay results reported in paper PMC3884217.

Molecular target: Nud1 pT78 peptide (budding yeast)

Kd: 2400 nM
B1: Mob1 (construct not stated for this experiment) (natural protein)
chain: MSFLQNFHISPGQTIRSTRGFKWNTANAANNAGSVSPTKATPHNNTINGNNNNANTINNRADFTNNPVNGYNESDHGRMSPVLTTPKRHAPPPEQLQNVTDFNYTPSHQKPFLQPQAGTTVTTHQDIKQIVEMTLGSEGVLNQAVKLPRGEDENEWLAVHCVDFYNQINMLYGSITEFCSPQTCPRMIATNEYEYLWAFQKGQPPVSVSAPKYVECLMRWCQDQFDDESLFPSKVTGTFPEGFIQRVIQPILRRLFRVYAHIYCHHFNEILELNLQTVLNTSFRHFCLFAQEFELLRPADFGPLLELVMELRDR
